B1: THAP1; numbered along this chain (parent)
chain: MVQSCSAYGCKNRYDKDKPVSFHKFPLTRPSLCKEWEAAVRRKNFKPTKYSSICSEHFTPDCFKRECNNKLLKENAVPTIFLCTEPHDKKEDLLEPQEQLPPPPLPPPVSQVDAAIGLLMPPLQTPVNLSVFCDHNYTVEDTMHQRKRIHQLEQQVEKLRKKLKTAQQRCRRQERQLEKLKEVVHFQKEKDDVSERGYVILPNDYFEIVEVPA

Variants of: B1
Assay: THAP1 transcriptional activity (GFP+/GFP- enrichment relative to wild-type constructs) (ratio to WT); higher = more THAP1 activity (PSMB5 reporter activation)
Conditions: with PSMB5 promoter-GFP reporter
Protocol: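 Deep mutational scan of human THAP1. Site-saturation single amino acid variant library (residues 2-213) was expressed by lentivirus at MOI ~0.3 in THAP1-knockout HEK-293T cells carrying an endogenous PSMB5 promoter-GFP knock-in reporter. Five days post-transduction, BFP+ cells were FACS-sorted into GFP dim and GFP bright populations and variants were counted by Illumina sequencing. Activity is the GFP-bright/GFP-dim read fold change, mean of 2 replicates, divided by the mean fold change of wild-type (synonymous) constructs in the same screen pool; WT = 1.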

THAP1 transcriptional activity of substitutions, site by site:
V40: N 0.136 | I 1.6 | F 0.119 | L 0.867 | E 0.113 | S 0.14 | H 0.17 | G 0.0879 | Q 0.142 | C 0.665 | T 0.238 | M 0.853 | A 0.221 | Y 0.101 | P 0.128 | R 0.1 | W 0.169 | D 0.0854 | K 0.127
N44: H 0.574 | V 0.111 | T 0.439 | M 0.177 | C 0.476 | G 1.06 | I 0.118 | W 0.123 | Y 0.297 | E 0.348 | F 0.301 | S 0.494 | L 0.205 | K 0.462 | R 0.178 | P 0.0859 | A 0.194 | D 1.16
K46: Q 0.581 | S 0.379 | P 0.126 | N 0.295 | D 0.0595 | L 0.23 | W 0.148 | G 0.0852 | I 0.465 | R 0.568 | T 0.869 | C 0.377 | V 0.455 | F 0.339 | M 0.442 | Y 0.335 | A 0.436 | E 0.212 | H 0.654
R41: K 1.05 | I 0.146 | A 1.37 | N 0.809 | W 0.182 | Q 0.878 | L 0.233 | H 0.827 | F 0.233 | Y 0.274 | C 0.763 | G 1.52 | T 0.171 | M 0.475 | P 0.0904 | S 0.809 | V 0.131 | E 0.197
T48: F 0.109 | E 0.0991 | A 0.107 | D 0.113 | C 0.128
A39: R 0.673 | L 0.253 | N 0.865 | K 0.9 | P 0.143 | M 0.752 | H 0.601 | W 0.289 | G 0.131 | Y 0.413 | Q 0.502 | I 0.271 | S 0.512 | F 0.283 | T 0.26 | V 0.252
R42: D 0.0738 | G 0.0813 | M 0.0797 | E 0.118 | Q 0.202 | Y 0.103 | S 0.158 | C 0.114 | I 0.181 | K 0.189 | A 0.127 | L 0.104 | F 0.116 | T 0.103 | W 0.128 | V 0.136 | H 0.105 | P 0.0977
K43: D 0.503 | H 0.626 | E 0.598 | C 0.621 | V 0.726 | M 0.434 | Q 1.02 | L 0.454 | P 0.957 | A 0.587 | S 0.623 | G 0.329 | W 0.278 | T 0.689 | I 0.615 | F 0.153 | R 0.716 | Y 0.365
F45: H 0.161 | C 0.027 | Y 0.154 | Q 0.128 | V 0.0786 | P 0.114 | D 0.0693 | S 0.0855 | L 0.142 | T 0.0941 | E 0.0902 | G 0.0858 | N 0.108 | M 0.12 | A 0.0632 | R 0.146 | K 0.0558 | I 0.0544
P47: Y 0.114 | E 0.173 | L 0.242 | D 0.108 | N 0.138 | F 0.0757 | H 0.106 | R 0.0941 | T 0.151 | S 0.14 | V 0.712 | C 0.229 | I 0.36 | A 0.896 | K 0.111 | G 0.111 | W 0.0629 | Q 0.104
